In US20230002480A1:

Key:
Test in all cases: cell-based or functional assay
[1] = target: HIV-1 Env of pseudovirus 6811.v7.c18 (clade CD) (HIV-1)
[2] = target: HIV-1 Env of pseudovirus 6240_08_TA5_4622 (HIV-1)
[3] = target: HIV-1 Env of pseudovirus 3016.v5.c45 (clade D) (HIV-1)
[4] = target: HIV-1 Env of pseudovirus P1981_C5_3 (clade G) (HIV-1)
[5] = target: HIV-1 Env of pseudovirus 6041.v3.c23 (clade AC) (HIV-1)
[6] = target: HIV-1 Env of pseudovirus 89-F1_2_25 (clade CD) (HIV-1)
[7] = target: HIV-1 Env of pseudovirus 235-47 (clade CRF02_AG) (HIV-1)
[8] = target: HIV-1 Env of pseudovirus 3415.v1.c1 (HIV-1)
[9] = target: HIV-1 Env of pseudovirus X2131_C1_B5 (clade G) (HIV-1)
[10] = target: HIV-1 Env of pseudovirus C3347.c11 (clade CRF01_AE) (HIV-1)
[11] = target: HIV-1 Env of pseudovirus 3301.v1.c24 (clade AC) (HIV-1)
[12] = target: HIV-1 Env of pseudovirus 6952.v1.c20 (clade CD) (HIV-1)
[13] = target: HIV-1 Env of pseudovirus Q23.17 (HIV-1)
[14] = target: HIV-1 Env of pseudovirus X1632_S2_B10 (clade G) (HIV-1)
[15] = target: HIV-1 Env of pseudovirus 6540.v4.c1 (clade AC) (HIV-1)
[16] = target: HIV-1 Env of pseudovirus 3817.v2.c59 (clade CD) (HIV-1)
[17] = target: HIV-1 Env of pseudovirus 231965.c01 (clade D) (HIV-1)
[18] = target: HIV-1 Env of pseudovirus 3103.v3.c10 (clade ACD) (HIV-1)
[19] = target: HIV-1 Env of pseudovirus 6480.v4.c25 (clade CD) (HIV-1)
[20] = target: HIV-1 Env of pseudovirus REJO4541.67 (HIV-1)
[21] = target: HIV-1 Env of pseudovirus A07412M1.vrc12 (clade D) (HIV-1)
[22] = target: HIV-1 Env of pseudovirus 0815.v3.c3 (clade ACD) (HIV-1)
[23] = target: HIV-1 Env of pseudovirus 6545.v4.c1 (clade AC) (HIV-1)
[24] = target: HIV-1 Env of pseudovirus 231966.c02 (clade D) (HIV-1)

Substance 10-1074 (antibody) has an IC50, titer in TZM.bl cells [1] of 0.002 µg/mL, an IC80, titer in TZM.bl cells [1] of 0.01 µg/mL and an IC50, titer in TZM.bl cells [2] of 0.068 µg/mL. It also gave an IC80, titer in TZM.bl cells [2] of 0.306 µg/mL, an IC50, titer in TZM.bl cells [3] of over 50 µg/mL and an IC80, titer in TZM.bl cells [3] of over 50 µg/mL. For the same substance, the IC50, titer in TZM.bl cells [4] was 0.005 µg/mL, the IC80, titer in TZM.bl cells [4] was 0.017 µg/mL and the IC50, titer in TZM.bl cells [5] was over 50 µg/mL. The IC80, titer in TZM.bl cells [5] was over 50 µg/mL, the IC50, titer in TZM.bl cells [6] was over 50 µg/mL and the IC80, titer in TZM.bl cells [6] was over 50 µg/mL. It also gave an IC50, titer in TZM.bl cells [7] of 0.05 µg/mL, an IC80, titer in TZM.bl cells [7] of 0.163 µg/mL and an IC50, titer in TZM.bl cells [8] of over 50 µg/mL. For the same substance, the IC80, titer in TZM.bl cells [8] was over 50 µg/mL, the IC50, titer in TZM.bl cells [9] was 0.016 µg/mL and the IC80, titer in TZM.bl cells [9] was 0.064 µg/mL. The IC50, titer in TZM.bl cells [10] was over 50 µg/mL, the IC80, titer in TZM.bl cells [10] was over 50 µg/mL and the IC50, titer in TZM.bl cells [11] was 0.013 µg/mL. The IC80, titer in TZM.bl cells [11] was 0.042 µg/mL, the IC50, titer in TZM.bl cells [12] was 0.037 µg/mL and the IC80, titer in TZM.bl cells [12] was 0.138 µg/mL. The IC50, titer in TZM.bl cells [13] was 0.006 µg/mL, the IC80, titer in TZM.bl cells [13] was 0.021 µg/mL and the IC50, titer in TZM.bl cells [14] was over 50 µg/mL. For the same substance, the IC80, titer in TZM.bl cells [14] was over 50 µg/mL, the IC50, titer in TZM.bl cells [15] was over 50 µg/mL and the IC80, titer in TZM.bl cells [15] was over 50 µg/mL. For the same substance, the IC50, titer in TZM.bl cells [16] was 3.15 µg/mL, the IC80, titer in TZM.bl cells [16] was 14.9 µg/mL and the IC50, titer in TZM.bl cells [17] was over 50 µg/mL. It also gave an IC80, titer in TZM.bl cells [17] of over 50 µg/mL, an IC50, titer in TZM.bl cells [18] of 0.037 µg/mL and an IC80, titer in TZM.bl cells [18] of 0.101 µg/mL. For the same substance, the IC50, titer in TZM.bl cells [19] was 0.009 µg/mL, the IC80, titer in TZM.bl cells [19] was 0.041 µg/mL and the IC50, titer in TZM.bl cells [20] was over 50 µg/mL. It also gave an IC80, titer in TZM.bl cells [20] of over 50 µg/mL, an IC50, titer in TZM.bl cells [21] of under 0.001 µg/mL and an IC80, titer in TZM.bl cells [21] of 0.048 µg/mL. It also gave an IC50, titer in TZM.bl cells [22] of 0.03 µg/mL, an IC80, titer in TZM.bl cells [22] of 0.138 µg/mL and an IC50, titer in TZM.bl cells [23] of over 50 µg/mL. The IC80, titer in TZM.bl cells [23] was over 50 µg/mL, the IC50, titer in TZM.bl cells [24] was over 50 µg/mL and the IC80, titer in TZM.bl cells [24] was over 50 µg/mL.

PG9 (antibody) showed an IC50, titer in TZM.bl cells [1] of over 50 µg/mL, an IC80, titer in TZM.bl cells [1] of over 50 µg/mL and an IC50, titer in TZM.bl cells [2] of 1.75 µg/mL. It also gave an IC80, titer in TZM.bl cells [2] of 6.33 µg/mL, an IC50, titer in TZM.bl cells [3] of 2.46 µg/mL and an IC80, titer in TZM.bl cells [3] of over 50 µg/mL. For the same substance, the IC50, titer in TZM.bl cells [4] was 0.258 µg/mL, the IC80, titer in TZM.bl cells [4] was 2.51 µg/mL and the IC50, titer in TZM.bl cells [5] was 0.244 µg/mL. The IC80, titer in TZM.bl cells [5] was 3.64 µg/mL, the IC50, titer in TZM.bl cells [6] was 0.668 µg/mL and the IC80, titer in TZM.bl cells [6] was 10.1 µg/mL. For the same substance, the IC50, titer in TZM.bl cells [7] was 0.233 µg/mL, the IC80, titer in TZM.bl cells [7] was 1.2 µg/mL and the IC50, titer in TZM.bl cells [9] was 0.084 µg/mL. For the same substance, the IC80, titer in TZM.bl cells [9] was 0.286 µg/mL, the IC50, titer in TZM.bl cells [10] was 0.032 µg/mL and the IC80, titer in TZM.bl cells [10] was 0.113 µg/mL. It also gave an IC50, titer in TZM.bl cells [11] of 0.216 µg/mL, an IC80, titer in TZM.bl cells [11] of 0.756 µg/mL and an IC50, titer in TZM.bl cells [12] of over 50 µg/mL. For the same substance, the IC80, titer in TZM.bl cells [12] was over 50 µg/mL, the IC50, titer in TZM.bl cells [13] was 0.027 µg/mL and the IC80, titer in TZM.bl cells [13] was 0.082 µg/mL. It also gave an IC50, titer in TZM.bl cells [14] of 0.107 µg/mL, an IC80, titer in TZM.bl cells [14] of 0.934 µg/mL and an IC50, titer in TZM.bl cells [15] of 0.07 µg/mL. For the same substance, the IC80, titer in TZM.bl cells [15] was 0.253 µg/mL, the IC50, titer in TZM.bl cells [16] was 0.02 µg/mL and the IC80, titer in TZM.bl cells [16] was 0.062 µg/mL. It also gave an IC50, titer in TZM.bl cells [17] of 1.28 µg/mL, an IC80, titer in TZM.bl cells [17] of 48 µg/mL and an IC50, titer in TZM.bl cells [18] of 28 µg/mL. The IC80, titer in TZM.bl cells [18] was over 50 µg/mL, the IC50, titer in TZM.bl cells [19] was over 50 µg/mL and the IC80, titer in TZM.bl cells [19] was over 50 µg/mL. For the same substance, the IC50, titer in TZM.bl cells [20] was 0.012 µg/mL, the IC80, titer in TZM.bl cells [20] was 0.163 µg/mL and the IC50, titer in TZM.bl cells [21] was 0.697 µg/mL. It also gave an IC80, titer in TZM.bl cells [21] of 7.96 µg/mL, an IC50, titer in TZM.bl cells [22] of over 50 µg/mL and an IC80, titer in TZM.bl cells [22] of over 50 µg/mL. The IC50, titer in TZM.bl cells [23] was 0.099 µg/mL, the IC80, titer in TZM.bl cells [23] was 0.351 µg/mL and the IC50, titer in TZM.bl cells [24] was 0.075 µg/mL. It also gave an IC80, titer in TZM.bl cells [24] of 0.257 µg/mL.

PG16 (antibody) showed an IC50, titer in TZM.bl cells [1] of over 50 µg/mL, an IC80, titer in TZM.bl cells [1] of over 50 µg/mL and an IC50, titer in TZM.bl cells [2] of over 50 µg/mL. For the same substance, the IC80, titer in TZM.bl cells [2] was over 50 µg/mL, the IC50, titer in TZM.bl cells [3] was over 50 µg/mL and the IC80, titer in TZM.bl cells [3] was over 50 µg/mL. The IC50, titer in TZM.bl cells [4] was 0.376 µg/mL, the IC80, titer in TZM.bl cells [4] was over 50 µg/mL and the IC50, titer in TZM.bl cells [5] was 0.048 µg/mL. The IC80, titer in TZM.bl cells [5] was 0.256 µg/mL, the IC50, titer in TZM.bl cells [6] was 47.6 µg/mL and the IC80, titer in TZM.bl cells [6] was over 50 µg/mL. For the same substance, the IC50, titer in TZM.bl cells [7] was 0.092 µg/mL, the IC80, titer in TZM.bl cells [7] was 4.51 µg/mL and the IC50, titer in TZM.bl cells [9] was 0.024 µg/mL. For the same substance, the IC80, titer in TZM.bl cells [9] was 0.139 µg/mL, the IC50, titer in TZM.bl cells [10] was 0.008 µg/mL and the IC80, titer in TZM.bl cells [10] was 0.045 µg/mL. The IC50, titer in TZM.bl cells [11] was 0.02 µg/mL, the IC80, titer in TZM.bl cells [11] was 0.087 µg/mL and the IC50, titer in TZM.bl cells [12] was 21.9 µg/mL. The IC80, titer in TZM.bl cells [12] was over 50 µg/mL, the IC50, titer in TZM.bl cells [13] was 0.008 µg/mL and the IC80, titer in TZM.bl cells [13] was 0.043 µg/mL. The IC50, titer in TZM.bl cells [14] was 0.012 µg/mL, the IC80, titer in TZM.bl cells [14] was 0.076 µg/mL and the IC50, titer in TZM.bl cells [15] was 0.035 µg/mL. For the same substance, the IC80, titer in TZM.bl cells [15] was 0.42 µg/mL, the IC50, titer in TZM.bl cells [16] was 0.008 µg/mL and the IC80, titer in TZM.bl cells [16] was 0.06 µg/mL. For the same substance, the IC50, titer in TZM.bl cells [17] was 1.44 µg/mL, the IC80, titer in TZM.bl cells [17] was over 50 µg/mL and the IC50, titer in TZM.bl cells [18] was 25.4 µg/mL. For the same substance, the IC80, titer in TZM.bl cells [18] was over 50 µg/mL, the IC50, titer in TZM.bl cells [19] was over 50 µg/mL and the IC80, titer in TZM.bl cells [19] was over 50 µg/mL. For the same substance, the IC50, titer in TZM.bl cells [20] was 0.039 µg/mL, the IC80, titer in TZM.bl cells [20] was 13.4 µg/mL and the IC50, titer in TZM.bl cells [21] was 0.343 µg/mL. The IC80, titer in TZM.bl cells [21] was over 50 µg/mL, the IC50, titer in TZM.bl cells [22] was over 50 µg/mL and the IC80, titer in TZM.bl cells [22] was over 50 µg/mL. The IC50, titer in TZM.bl cells [23] was 0.044 µg/mL, the IC80, titer in TZM.bl cells [23] was 1.56 µg/mL and the IC50, titer in TZM.bl cells [24] was 0.007 µg/mL. The IC80, titer in TZM.bl cells [24] was 0.031 µg/mL.
